Assay results from PMC6676893 (Biochemistry, 2019).

Legend:
[1] = molecular target: the molecule itself; assay: SEC
[2] = molecular target: the molecule itself; assay: crystal structure

B1: Escherichia coli SufS R92A (enzyme, E. coli)
chain: MIFSVDKVRADFPVLSREVNGLPLAYLDSAASAQKPSQVIDAEAEFYRHGYAAVHRGIHTLSAQATEKMENVRKRASLFINARSAEELVFVAGTTEGINLVANSWGNSNVRAGDNIIISQMEHHANIVPWQMLCARVGAELRVIPLNPDGTLQLETLPTLFDEKTRLLAITHVSNVLGTENPLAEMITLAHQHGAKVLVDGAQAVMHHPVDVQALDCDFYVFSGHKLYGPTGIGILYVKEALLQEMPPWEGGGSMIATVSLSEGTTWTKAPWRFEAGTPNTGGIIGLGAALEYVSALGLNNIAEYEQNLMHYALSQLESVPDLTLYGPQNRLGVIAFNLGKHHAYDVGSFLDNYGIAVRTGHHCAMPLMAYYNVPAMCRASLAMYNTHEEVDRLVTGLQRIHRLLG
modifications: persulfide on C364 (as isolated; crystallographic occupancy 0.84); PLP, internal aldimine with K226
Question: B1 was tested. Which “stoichiometry N” value [1] did it give?
Answer: Its value is 2.

B2: Escherichia coli SufS E250A (enzyme, E. coli)
chain: MIFSVDKVRADFPVLSREVNGLPLAYLDSAASAQKPSQVIDAEAEFYRHGYAAVHRGIHTLSAQATEKMENVRKRASLFINARSAEELVFVRGTTEGINLVANSWGNSNVRAGDNIIISQMEHHANIVPWQMLCARVGAELRVIPLNPDGTLQLETLPTLFDEKTRLLAITHVSNVLGTENPLAEMITLAHQHGAKVLVDGAQAVMHHPVDVQALDCDFYVFSGHKLYGPTGIGILYVKEALLQEMPPWAGGGSMIATVSLSEGTTWTKAPWRFEAGTPNTGGIIGLGAALEYVSALGLNNIAEYEQNLMHYALSQLESVPDLTLYGPQNRLGVIAFNLGKHHAYDVGSFLDNYGIAVRTGHHCAMPLMAYYNVPAMCRASLAMYNTHEEVDRLVTGLQRIHRLLG
modifications: persulfide on C364 (as isolated; crystallographic occupancy 0.63); PLP, internal aldimine with K226
Question: Which “stoichiometry N” value [1] does the source give for B2 here?
Answer: Its value is 2.

B3: Escherichia coli SufS H55A (enzyme, E. coli)
chain: MIFSVDKVRADFPVLSREVNGLPLAYLDSAASAQKPSQVIDAEAEFYRHGYAAVARGIHTLSAQATEKMENVRKRASLFINARSAEELVFVRGTTEGINLVANSWGNSNVRAGDNIIISQMEHHANIVPWQMLCARVGAELRVIPLNPDGTLQLETLPTLFDEKTRLLAITHVSNVLGTENPLAEMITLAHQHGAKVLVDGAQAVMHHPVDVQALDCDFYVFSGHKLYGPTGIGILYVKEALLQEMPPWEGGGSMIATVSLSEGTTWTKAPWRFEAGTPNTGGIIGLGAALEYVSALGLNNIAEYEQNLMHYALSQLESVPDLTLYGPQNRLGVIAFNLGKHHAYDVGSFLDNYGIAVRTGHHCAMPLMAYYNVPAMCRASLAMYNTHEEVDRLVTGLQRIHRLLG
modifications: persulfide on C364 (as isolated; crystallographic occupancy 0.66); PLP, internal aldimine with K226
Question: Does B3 bind [2]?
Answer: Result: binds

B4: Escherichia coli SufS E96A (enzyme, E. coli)
chain: MIFSVDKVRADFPVLSREVNGLPLAYLDSAASAQKPSQVIDAEAEFYRHGYAAVHRGIHTLSAQATEKMENVRKRASLFINARSAEELVFVRGTTAGINLVANSWGNSNVRAGDNIIISQMEHHANIVPWQMLCARVGAELRVIPLNPDGTLQLETLPTLFDEKTRLLAITHVSNVLGTENPLAEMITLAHQHGAKVLVDGAQAVMHHPVDVQALDCDFYVFSGHKLYGPTGIGILYVKEALLQEMPPWEGGGSMIATVSLSEGTTWTKAPWRFEAGTPNTGGIIGLGAALEYVSALGLNNIAEYEQNLMHYALSQLESVPDLTLYGPQNRLGVIAFNLGKHHAYDVGSFLDNYGIAVRTGHHCAMPLMAYYNVPAMCRASLAMYNTHEEVDRLVTGLQRIHRLLG
modifications: persulfide on C364 (as isolated; crystallographic occupancy 0.80); PLP, internal aldimine with K226
Question: B4 was tested. Which “stoichiometry N” value [1] did it give?
Answer: Its value is 2.
